Assay results reported in patent publication US7732178B2, “Laccase enzymes and their uses” (AB Enzymes Oy, priority 2004, dated 2010).
Entries after “also recorded” stand apart in the source; their conditions may differ.

Tests used:
[1] = Decolorization of dyes; design: key to Decolorization of Indigocarmine, Time 30 min / Decolorization of Indigocarmine, Time 60 min: −: no visually detectable change; +: visually detectable fading of the colour; ++: considerable fading of the colour; +++: complete/almost complete decolorization; details: for Decolorization of Indigocarmine, Time 30 min / Decolorization of Indigocarmine, Time 60 min: Table 24, dye 5 mg/50 ml, enzyme 100 nkat/50 ml, 50° C., pH 6
Procedure: (§1) The recombinant laccases CtLcc1, TaLcc2 and TaLcc4, derived from Trichoderma strains (Example 7) were tested for their ability to decolorize different dyes in the presence of the methyl syringate mediator (Example 7) or without it. The experiments were carried out in 100 ml shake flasks containing 50 ml of dye dissolved in citrate phosphate buffer pH 6. Dye concentration 5 mg/50 ml was used. Enzyme was dosed 100 nkat per 50 ml and the mediator 5 mg per 50 ml. Control samples contained only dye solution. The shake flasks were incubated at 50° C. for 30, 60 and 120 minutes. Samples of 3.5 ml were taken in test tubes for visual evaluation.

[2] = Redox potential of T1 copper, photometric copper titration; type: physicochemical; details: 0.1 M KH2PO4 (pH 6.0)
Procedure: The purified recombinant Thielavia and Chaetomium laccases were characterized in terms of pH optimum, thermal stability, and pI as described in Example 2. The molecular weight was determined by MALDI-TOF mass spectrometry on a Ultraflex™ time-of-flight instrument (BrukerDaltonics, Germany) as previously described (Palonen et al., 2003). The redox-potentials of the T1 coppers of for CtLcc, and TaLcc2 laccases were determined by photometric copper titration in 0.1 M KH2PO4 (pH 6.0) as described by Xu et al. (1996) using the redox titrant couple K3Fe(CN)6/K4Fe(CN)6. The redox potential of TaLcc1 was determined with a combined Pt—AgCl/KCl microelectrode at pH 5.0 according to Sigoillot et al (2004). The characterization results are collected to Table 14.

[3] = Stain removal, grass soiling; design: key to Grass L* / Grass a* / Grass b*: CIE L*a*b* color coordinates from reflectance; details: for Grass L* / Grass a* / Grass b*: 60 min, pH 6
Procedure: Laccases CtLcc1, TaLcc2, TaLcc4 and Denilite II Base (Example 7) were tested for their ability to remove stains. The following artificially soiled test cloths were used: grass soiling (Art.164, EMPA Testmaterialen, Germany), tea soiling (Art. 167, EMPA Testmaterialen, Germany). The fabric was cut in 5.8×5.8 cm swatches. Laccase treatments were performed in LP-2 Launder Ometer as follows. About 5 g of soiled fabrics were loaded into 1.2 liter containers containing 150 ml Mc Ilvaine's citrate phosphate buffer pH 6 and the containers were temperated. Enzyme with or without the mediator (methyl syringate, DeniLite II Assist, Novozymes) was added as laccase activity units (Example 7). Enzyme was dosed 200 nkat/g and the mediator 10 mg/g on the weight of fabric, except at 40° C. dosages of 20 nkat/g and 2 mg/g were also used. The Launder Ometer was run at 40, 50 or 60° C. and pH 6 for 60 min. After that the swatches were carefully rinsed under running water and in shake flasks containing warm water and dried in the air.
The stain removal effect was evaluated by measuring the colour as reflectance values using L*a*b* color space coordinates (Example 7). The colour of the swatches was measured before and after the laccase treatment.

[4] = Decolorization of dyes; design: key to Decolorization of Cibacron Brilliant Red 3B-P, Time 30 min / Decolorization of Cibacron Brilliant Red 3B-P, Time 60 min: −: no visually detectable change; +: visually detectable fading of the colour; ++: considerable fading of the colour; +++: complete/almost complete decolorization; details: for Decolorization of Cibacron Brilliant Red 3B-P, Time 30 min / Decolorization of Cibacron Brilliant Red 3B-P, Time 60 min: Table 24, dye 5 mg/50 ml, enzyme 100 nkat/50 ml, 50° C., pH 6
Procedure: as §1

[5] = Denim bleaching at different pH values; design: key to After laccase treatment L* / After laccase treatment b* / Increase of L*: CIE L*a*b* colour coordinates (illuminant D65), Minolta reflectance; details: for After laccase treatment L* / After laccase treatment b* / Increase of L*: face side of denim, 30 min, 50° C.
Procedure: Lee Cooper jeans (MASI Company Oy, Finland) that were desized and treated with neutral ECOSTONE® cellulase were used as test material. Laccase treatments were performed in LP-2 Launder Ometer as follows. About 10 g of denim swatches (15×14 cm) were loaded into 1.2 liter containers containing 200 ml Mc Ilvaine's citrate phosphate buffer pH 5, 6 or 7 and the containers were temperated. Enzyme with or without the mediator (methyl syringate, DeniLite II Assist, Novozymes) was added as laccase activity units. Enzyme was dosed 200 nkat/g and the mediator 10 mg/g on the weight of fabric. […] The Launder Ometer was run at 50° C. for 30 min and after that the temperature in Launder was raised to 80° C. for 10 min. The swatches were carefully rinsed with warm water, dried half-dry in a tumbler and after that air dried.
The bleaching effect was evaluated by measuring the colour as reflectance values with the Minolta Chromameter CM 1000 (Minolta Co.) using L*a*b* color space coordinates (illuminant D65). The colour from both sides of the swatches was measured before and after the laccase treatment. Each measurement was the average of several measurements.

[6] = Specific activity towards di-methoxy-phenol (DMP); type: biochemical; details: 25 mM MES buffer, pH 5.5
Procedure: Specific activities of the purified T. arenaria and C. thermophilum laccases were determined towards different laccase substrates.

[7] = in the presence of the mediator
[8] = 40° C., enzyme 20 nkat/g + mediator 2 mg/g (Mediator only: 0 nkat/g)
[9] = 40° C., enzyme 200 nkat/g + mediator 10 mg/g (Mediator only: 0 nkat/g), RF5571
[10] = 40° C., enzyme 200 nkat/g + mediator 10 mg/g (Mediator only: 0 nkat/g), RF5573
[11] = 40° C., enzyme 200 nkat/g, mediator 0 mg/g
[12] = 50° C., enzyme 200 nkat/g + mediator 10 mg/g (Mediator only: 0 nkat/g)
[13] = pH 5, enzyme 200 nkat/g without the mediator, or mediator 10 mg/g alone
[14] = pH 5, enzyme 200 nkat/g, mediator 10 mg/g
[15] = pH 6, enzyme 200 nkat/g without the mediator, or mediator 10 mg/g alone
[16] = pH 6, enzyme 200 nkat/g, mediator 10 mg/g
[17] = pH 7, enzyme 200 nkat/g without the mediator, or mediator 10 mg/g alone
[18] = pH 7, enzyme 200 nkat/g, mediator 10 mg/g

B1: TaLcc2: Thielavia arenaria ALKO 4197 laccase, SEQ ID NO: 41, produced in Trichoderma reesei (protein)
chain: MLTETLKSRNMLQSILALLATALGSSAFAIPELPEVSLQPRQACENTATSRQCWGDLSIDTNYYEVLPSTGRPPQEYWLSVVEGPCAPDGYNRTCMTFNGTVPGPTLFADWGDELVIHVTNNMVNNGTAIHWHGIRMLNNTLNDGVPGVTQCAIAPGESMTYRFNVTQYGSTWYHSHFSLQYAEGLFGGMILRGPSTANWDEDLGVLFLQDWSHVEAFTRWHEAKAGFPPSLDGGLINGTNTFDCSTLSPTDPKCTGNGKKFETVFEPGKKYLIRLINVAIDGVFQFSIDGHSLTVIATDLVPIVPYTTDSVQITIGQRYDIIVEANATPGNYWMRADWVTACVTNDHPEHMTGIVRYDASSIDPPTSESNVTKTSSCLGEPNEKTIPHLSLDVTNIGGTNVEELSFDTTSGDYFQWTLNTSSLVLDWGNPTMARIFNGDAIFPTEYNVVAVNKTGTGPEWTVLVIQDQSNLPIAHPIHLHGHDFWVLAAEEGVFNGNISSFNTRNPARRDVATLPGRGYLAIAFQIDNPGTWLTHCHIAWHASQGLSLEFVESQSEIVTDEVSRGVFNDVCASWRAHDPLWEQEDSGI
modifications: Thielavia arenaria ALKO4197; (1)..(589) Deduced amino acid sequence of Thielavia arenaria ALKO4197 TaLacc2
For B1, the “Decolorization of Indigocarmine, Time 30 min” value ([1]; mediator 0 mg/50 ml) was “−”, the “Decolorization of Indigocarmine, Time 60 min” value ([1]; mediator 0 mg/50 ml) was “−” and the “Decolorization of Indigocarmine, Time 30 min” value ([1]; mediator 5 mg/50 ml) was “+++”. For the same molecule, the “Decolorization of Indigocarmine, Time 60 min” value ([1]; mediator 5 mg/50 ml) was “+++”, the “decolorization of Indigocarmine” value [1, 7] was “very effectively; also recorded: to great extend or completely” and the “E^0” value [2] was 450 mV. For the same molecule, the “Grass L*” value [3, 8] was 79.25, the “Grass a*” value [3, 8] was −2.14 and the “Grass b*” value [3, 8] was 16.41. The “Grass L*” value [3, 9] was 79.24, the “Grass a*” value [3, 9] was −0.31 and the “Grass b*” value [3, 9] was 16.72. For the same molecule, the “Grass L*” value [3, 10] was 79.19, the “Grass a*” value [3, 10] was −0.26 and the “Grass b*” value [3, 10] was 16.99. For the same molecule, the “Grass L*” value [3, 11] was 80.01, the “Grass a*” value [3, 11] was −4.90 and the “Grass b*” value [3, 11] was 17.63. The “Grass L*” value [3, 12] was 79.50, the “Grass a*” value [3, 12] was −1.15 and the “Grass b*” value [3, 12] was 17.94. The “removal of grass soiling with the mediator” value ([3]; CtLcc1 at 60° C., TaLcc2 at 50° C.) was “effective”, the “Decolorization of Cibacron Brilliant Red 3B-P, Time 30 min” value ([4]; mediator 0 mg/50 ml) was “−” and the “Decolorization of Cibacron Brilliant Red 3B-P, Time 60 min” value ([4]; mediator 0 mg/50 ml) was “−”. The “Decolorization of Cibacron Brilliant Red 3B-P, Time 30 min” value ([4]; mediator 5 mg/50 ml) was “+”, the “Decolorization of Cibacron Brilliant Red 3B-P, Time 60 min” value ([4]; mediator 5 mg/50 ml) was “+” and the “decolorization of Cibacron Brilliant Red 3B-P” value [4, 7] was “partly decolorized”. The “After laccase treatment L*” value [5, 13] was 30.11, the “After laccase treatment b*” value [5, 13] was −18.63 and the “Increase of L*” value [5, 13] was −0.02. For the same molecule, the “After laccase treatment L*” value [5, 14] was 33.68, the “After laccase treatment b*” value [5, 14] was −17.91 and the “Increase of L*” value [5, 14] was 5.39. For the same molecule, the “After laccase treatment L*” value [5, 15] was 29.17, the “After laccase treatment b*” value [5, 15] was −18.51 and the “Increase of L*” value [5, 15] was 0.30. The “After laccase treatment L*” value [5, 16] was 39.01, the “After laccase treatment b*” value [5, 16] was −17.46 and the “Increase of L*” value [5, 16] was 10.57. The “After laccase treatment L*” value [5, 17] was 28.24, the “After laccase treatment b*” value [5, 17] was −18.30 and the “Increase of L*” value [5, 17] was 0.77. The “After laccase treatment L*” value [5, 18] was 35.85, the “After laccase treatment b*” value [5, 18] was −18.27 and the “Increase of L*” value [5, 18] was 7.26. For the same molecule, the “decolorization of indigo dye of denim compared to DeniLite II Base” value ([5]; pH values 6 and 7, with mediator) was “more efficient” and the “Specific activity on DMP” value [6] was 75 nkat/mg.
